The results in this text go back to EP4683932A2.

The target of the assay is Pak2 kinase (UniProt Q13177). Description: cell-based or functional assay.
Chain of UniProt Q13177 (Q13177 2-524 limits assumed): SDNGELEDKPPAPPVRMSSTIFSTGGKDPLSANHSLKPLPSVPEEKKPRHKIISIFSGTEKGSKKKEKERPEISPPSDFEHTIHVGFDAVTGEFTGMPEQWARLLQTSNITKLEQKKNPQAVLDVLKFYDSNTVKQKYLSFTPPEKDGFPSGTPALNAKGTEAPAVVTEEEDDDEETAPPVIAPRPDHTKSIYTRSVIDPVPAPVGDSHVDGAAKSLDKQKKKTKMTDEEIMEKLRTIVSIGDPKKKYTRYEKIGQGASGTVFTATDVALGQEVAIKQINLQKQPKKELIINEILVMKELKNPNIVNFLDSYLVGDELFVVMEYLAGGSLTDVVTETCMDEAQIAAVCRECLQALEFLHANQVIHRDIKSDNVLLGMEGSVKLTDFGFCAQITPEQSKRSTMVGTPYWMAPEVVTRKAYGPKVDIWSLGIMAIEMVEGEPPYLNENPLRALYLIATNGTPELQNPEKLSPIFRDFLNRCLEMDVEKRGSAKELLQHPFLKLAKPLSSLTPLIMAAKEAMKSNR

Consider “HIV-1 Nef protein, wild type (Nef from HIV-1 Clade B)”, for which the phosphorylation of the Pak2 kinase at S55, quantitative phosphoproteomics of NALM6-stimulated CAR T cells, Nef-WT compared to NefAxxA is 2.15 log2Fc and the phosphorylation of the Pak2 kinase at S152, quantitative phosphoproteomics of NALM6-stimulated CAR T cells, Nef-WT compared to NefAxxA was determined as 1.17 log2Fc.
